The values below come from patent US20190112367A1 (IMMUNOQURE, published 2019).

Test [1] has as its target T1, IL-32alpha (ImmunoTools) (human, UniProt P24001-4 1-131, limits assumed).
T1 construct: Bought from ImmunoTools; also called IL-32α
T1 sequence (looked up): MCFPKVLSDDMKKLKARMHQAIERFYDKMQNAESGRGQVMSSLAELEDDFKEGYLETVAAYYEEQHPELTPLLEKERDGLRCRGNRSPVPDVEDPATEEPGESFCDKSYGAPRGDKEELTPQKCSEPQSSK
Briefly: ELISA, antigen coated on plate. As for the experimental part:
(§1) EC50 binding of exemplary anti-IL-32 antibodies of the present invention to IL-32γ (R&D) or IL-32α (ImmunoTools), was determined by ELISA. Serial dilutions of MABs (from 100,000 ng/ml down to 1.69 ng/ml) were incubated for 2 hours with antigen-coated plates (coating overnight at 1 μg/ml in PBS, followed by wash out and blocking with 2% BSA in PBS). The plates were subsequently washed and binding of MABs was detected with anti-human HRP-conjugated Fc-gamma-specific secondary antibody (Jackson ImmunoResearch, Europe Ltd., Cambridgeshire, UK). Concentrations of MAB resulting in half of maximal binding to respective antigens (EC50, ng/ml) were calculated using Prism 4 GraphPad software on sigmoidal dose-response curves (variable slope, 4 parameters) obtained by plotting the log of the concentration versus OD 450 nm measurements; for the results see FIG. 3 and Table 4 below.
A general note: An ELISA detects its analyte on a solid surface through an enzyme-linked reagent.

Test [2] addresses T1, IL-32alpha (ImmunoTools). Put plainly: ELISA, antigen coated at 1 µg/ml, serial dilutions of MAB. On the procedure: as §1

One may read the EC50 as the concentration at which the effect is half-maximal. High values mean lower potency in that assay, low ones higher potency in that assay.

B1: anti-IL-32 antibody 26A6 (IgG1, lambda) (antibody, V domains shown)
VH: QVQLVESGGGVVQPGRSLRLSCVASGLTFRTYGMHWVRQAPGNGLEWVAIIWHDGNKKYFADSVKGRFTISRDNSKNSLYLQMNSLRVEDTAVYYCAREMNGIDVWGQGTTVTVSS
VL: SYELTQPPSVSVSPGQTARITCSGDALPETYVYWYQQKSGQAPVKLIYEDSERPSGIPERFSGSSSGTLATLTISGAHVEDEADYYCYSTDSSGIGVFGGGTKVTVLS
notes: IgG1, lambda; also called MAB 26A6
For the molecule B1, the binding result in the test with IL-32alpha (ImmunoTools) [1] is recorded as “no binding (tested: 100 ug/ml (highest concentration tested))”.

B2: anti-IL-32 antibody 14B3 (IgG1, lambda) (antibody)
heavy: not shown
light: SYELTQPPSVSVSPGQTARITCSGDALPETYVYWYQQKSGQAPVKLIYEDSERPSGIPERFSGSSSGTLATLTISGAHVEDEADYYCYSTDSSGIGVFGGGTKLTVLSQPKAAPSVTLFPPSSEELQANKATLVCLISDFYPGAVTVAWKADSSPVKAGVETTTPSKQSNNKYAASSYLSLTPEQWKSHKSYSCQVTHEGSTVEKTVAPTECS
notes: also called MAB 14B3
In the case of B2, the binding result with IL-32alpha (ImmunoTools) [1] is on record as “no binding (tested: 100 ug/ml (highest concentration tested))”.

B3: anti-IL-32 antibody 19A1 (IgG1, lambda) (antibody)
heavy: not shown
light: SYELTQPPSVSVSPGQTARITCSGDALPETYVYWYQQKSGQAPVKLIYEDSERPSGIPERFSGSSSGTLATLTISGAHVEDEADYYCYSTDSSGIGVFGGGTKLTVLSQPKAAPSVTLFPPSSEELQANKATLVCLISDFYPGAVTVAWKADSSPVKAGVETTTPSKQSNNKYAASSYLSLTPEQWKSHKSYSCQVTHEGSTVEKTVAPTECS
notes: also called MAB 19A1
Take B3: in the test with IL-32alpha (ImmunoTools) [1], the binding result is listed as “no binding (tested: 100 ug/ml (highest concentration tested))”.

B4: anti-IL-32 antibody 2C2 (IgG3, lambda) (antibody, V domains shown)
VH: QLRVQESGPGLLKPAETLSLTCSVSSGSVSNSRYYWAWIRQSPGKGLEWIGSMYYRGRSYYNPSLKSRLTISIDTSKNQFSLKLTSLTAADTAVYYCAAAVYHDLDYWGQGTLVTVSS
VL: QSVLTQPPSVSAAPGQKVTISCSGSGSSIGNNYVSWYQQLPGAAPKLLIYDNTKRPSGIPDRFSGSKSGTSATLAITGLQPGDAADYYCGTWDSSFSVFWVFGGGTKLTVLS
notes: Human patient-derived antibody, recombinantly expressed; the chains are put together from these; also called MAB 2C2; exemplary anti-IL-32 2C2 antibody
On to B4, for which the EC50 in the test with IL-32alpha (ImmunoTools) [2] was > 30 µg/mL.
